Results taken from paper PMC4513852.
Read-outs that look alike come from different tables or passages of the source.

Assays:
[1] = target: Hin F105C (Salmonella enterica) (UniProt P03013); experiment: native gel or EMSA
[2] = target: Hin F105H (Salmonella enterica) (UniProt P03013); experiment: native gel or EMSA
[3] = target: Hin F105I (Salmonella enterica) (UniProt P03013); experiment: native gel or EMSA
[4] = target: Hin F105L (Salmonella enterica) (UniProt P03013); experiment: native gel or EMSA
[5] = target: Hin F105M (Salmonella enterica) (UniProt P03013); experiment: native gel or EMSA
[6] = target: Hin F105Q (Salmonella enterica) (UniProt P03013); experiment: native gel or EMSA
[7] = target: Hin F105V (Salmonella enterica) (UniProt P03013); experiment: native gel or EMSA
[8] = target: Hin F105W (Salmonella enterica) (UniProt P03013); experiment: native gel or EMSA
[9] = target: Hin F106A (Salmonella enterica) (UniProt P03013); experiment: native gel or EMSA
[10] = target: Hin F106C (Salmonella enterica) (UniProt P03013); experiment: native gel or EMSA
[11] = target: Hin F106D (Salmonella enterica) (UniProt P03013); experiment: native gel or EMSA
[12] = target: Hin F106E (Salmonella enterica) (UniProt P03013); experiment: native gel or EMSA
[13] = target: Hin F106G (Salmonella enterica) (UniProt P03013); experiment: native gel or EMSA
[14] = target: Hin F106H (Salmonella enterica) (UniProt P03013); experiment: native gel or EMSA
[15] = target: Hin F106I (Salmonella enterica) (UniProt P03013); experiment: native gel or EMSA
[16] = target: Hin F106K (Salmonella enterica) (UniProt P03013); experiment: native gel or EMSA
[17] = target: Hin F106L (Salmonella enterica) (UniProt P03013); experiment: native gel or EMSA
[18] = target: Hin F106M (Salmonella enterica) (UniProt P03013); experiment: native gel or EMSA
[19] = target: Hin F106N (Salmonella enterica) (UniProt P03013); experiment: native gel or EMSA
[20] = target: Hin F106P (Salmonella enterica) (UniProt P03013); experiment: native gel or EMSA
[21] = target: Hin F106Q (Salmonella enterica) (UniProt P03013); experiment: native gel or EMSA
[22] = target: Hin F106R (Salmonella enterica) (UniProt P03013); experiment: native gel or EMSA
[23] = target: Hin F106S (Salmonella enterica) (UniProt P03013); experiment: native gel or EMSA
[24] = target: Hin F106T (Salmonella enterica) (UniProt P03013); experiment: native gel or EMSA
[25] = target: Hin F106V (Salmonella enterica) (UniProt P03013); experiment: native gel or EMSA
[26] = target: Hin F106W (Salmonella enterica) (UniProt P03013); experiment: native gel or EMSA
[27] = target: Hin F106Y (Salmonella enterica) (UniProt P03013); experiment: native gel or EMSA
[28] = target: Hin F106Y (Salmonella enterica) (UniProt P03013)
[29] = target: Hin M109F (Salmonella enterica) (UniProt P03013); experiment: native gel or EMSA
[30] = target: Hin M109H (Salmonella enterica) (UniProt P03013); experiment: native gel or EMSA
[31] = target: Hin M109H (Salmonella enterica) (UniProt P03013); experiment: native gel or EMSA; remark: listed apart in the source
[32] = target: Hin M109K (Salmonella enterica) (UniProt P03013); experiment: native gel or EMSA
[33] = target: Hin M109N (Salmonella enterica) (UniProt P03013); experiment: native gel or EMSA
[34] = target: Hin M109Q (Salmonella enterica) (UniProt P03013); experiment: native gel or EMSA
[35] = target: Hin M109R (Salmonella enterica) (UniProt P03013); experiment: native gel or EMSA
[36] = target: Hin M109W (Salmonella enterica) (UniProt P03013); experiment: native gel or EMSA
[37] = target: Hin M109Y (Salmonella enterica) (UniProt P03013); experiment: native gel or EMSA
[38] = target: Hin-Q134C (wt) (Salmonella enterica) (UniProt P03013); experiment: cross-linking

Substance: Hin F105C (from UniProt P03013 1-190) (enzyme)
- stoichiometry N [1]: 4

Substance: Hin F105H (from UniProt P03013 1-190) (enzyme)
- stoichiometry N [2]: 4

Substance: Hin F105I (from UniProt P03013 1-190) (enzyme)
- stoichiometry N [3]: 4

Substance: Hin F105L (from UniProt P03013 1-190) (enzyme)
- stoichiometry N [4]: 4

Substance: Hin F105M (from UniProt P03013 1-190) (enzyme)
- stoichiometry N [5]: 4

Substance: Hin F105Q (from UniProt P03013 1-190) (enzyme)
- stoichiometry N [6]: 4

Substance: Hin F105V (from UniProt P03013 1-190) (enzyme)
- stoichiometry N [7]: 4

Substance: Hin F105W (from UniProt P03013 1-190) (enzyme)
- stoichiometry N [8]: 4

Substance: Hin F106A (from UniProt P03013 1-190) (enzyme)
- stoichiometry N [9]: 2

Substance: Hin F106C (from UniProt P03013 1-190) (enzyme)
- stoichiometry N [10]: 2

Substance: Hin F106D (from UniProt P03013 1-190) (enzyme)
- stoichiometry N [11]: 2

Substance: Hin F106E (from UniProt P03013 1-190) (enzyme)
- stoichiometry N [12]: 2

Substance: Hin F106G (from UniProt P03013 1-190) (enzyme)
- stoichiometry N [13]: 2

Substance: Hin F106H (from UniProt P03013 1-190) (enzyme)
- stoichiometry N [14]: 2

Substance: Hin F106I (from UniProt P03013 1-190) (enzyme)
- stoichiometry N [15]: 2

Substance: Hin F106K (from UniProt P03013 1-190) (enzyme)
- stoichiometry N [16]: 2

Substance: Hin F106L (from UniProt P03013 1-190) (enzyme)
- stoichiometry N [17]: 2

Substance: Hin F106M (from UniProt P03013 1-190) (enzyme)
- stoichiometry N [18]: 2

Substance: Hin F106N (from UniProt P03013 1-190) (enzyme)
- stoichiometry N [19]: 2

Substance: Hin F106P (from UniProt P03013 1-190) (enzyme)
- stoichiometry N [20]: 2

Substance: Hin F106Q (from UniProt P03013 1-190) (enzyme)
- stoichiometry N [21]: 2

Substance: Hin F106R (from UniProt P03013 1-190) (enzyme)
- stoichiometry N [22]: 2

Substance: Hin F106S (from UniProt P03013 1-190) (enzyme)
- stoichiometry N [23]: 2

Substance: Hin F106T (from UniProt P03013 1-190) (enzyme)
- stoichiometry N [24]: 2

Substance: Hin F106V (from UniProt P03013 1-190) (enzyme)
- stoichiometry N [25]: 2

Substance: Hin F106W (from UniProt P03013 1-190) (enzyme)
- stoichiometry N [26]: 2

Substance: Hin F106Y (from UniProt P03013 1-190) (enzyme)
- stoichiometry N [27]: 2
- Fis-activated in vitro DNA inversion rate, relative to wild type (% of the wild-type rate) [28]: 10

Substance: Hin M109F (from UniProt P03013 1-190) (enzyme)
- stoichiometry N [29]: 2

Substance: Hin M109H (from UniProt P03013 1-190) (enzyme)
- stoichiometry N [30]: 4
- stoichiometry N [31]: 2

Substance: Hin M109K (from UniProt P03013 1-190) (enzyme)
- stoichiometry N [32]: 4

Substance: Hin M109N (from UniProt P03013 1-190) (enzyme)
- stoichiometry N [33]: 2

Substance: Hin M109Q (from UniProt P03013 1-190) (enzyme)
- stoichiometry N [34]: 4

Substance: Hin M109R (from UniProt P03013 1-190) (enzyme)
- stoichiometry N [35]: 4

Substance: Hin M109W (from UniProt P03013 1-190) (enzyme)
- stoichiometry N [36]: 4

Substance: Hin M109Y (from UniProt P03013 1-190) (enzyme)
- stoichiometry N [37]: 4

Substance: Hin-Q134C (wt) (from UniProt P03013 1-190) (enzyme)
- percent crosslinked products [38]: 65%
